These results are taken from publication PMC10902354, “Deficiency in PHD2-mediated hydroxylation of HIF2α underlies Pacak-Zhuang syndrome” (Communications Biology, 2024).

Data set [1] has as its system PHD. The settings on record: cited from earlier work. From the text:
(§1) Pacak-Zhuang syndrome is a pseudohypoxic disease resulting from the inappropriate stabilization of HIF2α under normoxic conditions caused by gain-of-function missense mutations in the CODD region of HIF2α. These missense mutations stabilize HIF2α by ultimately inhibiting proteasome-mediated destruction of HIF2α[2],[6],[21]. Previously, we hypothesized that the mutations in the HIF2α-CODD region disrupted the pVHL/HIF2α interface. This appeared to be true for most Class 1 mutants examined to date.

For data set [2], the system named is pVHL. The note with it: prolyl-hydroxylated HIF2α peptides; cited from earlier work.
Text: as §1

In data set [3] the target is T1, PHD2 (prolyl-hydroxylase domain, residues 181–426) (Homo sapiens, UniProt Q9GZT9).
T1 construct: encodes for His6-PHD2 (prolyl-hydroxylase domain, residues 181–426); His6 (N, cleaved yes); made in house; host or cells: E. coli BL21(DE3)
T1 sequence (Q9GZT9 181-426): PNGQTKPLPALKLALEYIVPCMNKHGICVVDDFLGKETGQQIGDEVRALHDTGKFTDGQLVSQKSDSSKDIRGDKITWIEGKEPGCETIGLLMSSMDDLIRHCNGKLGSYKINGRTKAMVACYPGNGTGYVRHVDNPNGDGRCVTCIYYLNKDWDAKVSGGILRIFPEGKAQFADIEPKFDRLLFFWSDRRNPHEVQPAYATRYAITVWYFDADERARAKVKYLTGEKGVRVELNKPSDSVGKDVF
As to the kind of experiment: Microscale thermophoresis (MST) binding of HIFα-CODD peptides to the catalytic domain of PHD2. The settings on record: for Kd (MST-determined PHD2/HIFα-CODD complex dissociation constant): 25 nM Alexa 647-labeled PHD2, Tris–HCl with NOG (1 mM NOG, 10 µM FeSO4, 5 mg/ml BSA in 2x MST Buffer pH 7.5), peptide in Tris pH 8.0, room temperature, 10 min incubation, 1:1 Kd model, triplicate measurements, highest concentration omitted for Y532H and P531A (aggregation); for Binding to PHD2 (in words): 25 nM PHD2-647, with NOG, room temperature. The procedure: To determine if there is a direct effect of HIF2α mutations on PHD2 binding, we devised a quantitative method for determining the dissociation constant (Kd) of the HIF2α-CODD peptides and the catalytic domain of PHD2 using microscale thermophoresis (MST)[13],[14] in the presence of the PHD inhibitor n-oxalylglycine (NOG) to inhibit reaction turnover.
PHD2 was purified via a previously described but modified procedure[4],[30]. […] Cells were grown to an OD600 of 0.8 at 37 °C and expression of His6-PHD2 was induced with a final concentration of 0.5 mM IPTG. Cells were grown for an additional 3 h post-induction at 37 °C and harvested via centrifugation. Cell pellets were either used immediately for purification or stored at −80 °C for later use. Cell pellets were resuspended in Lysis Buffer (50 mM Tris–HCl pH 7.9, 500 mM NaCl, 5 mM Imidazole) containing 1x SigmaFast protease inhibitor cocktail (Sigma-Aldrich) and lysed with 3 passes through an Emulsiflex-C3 cell disruptor (Avestin) at 20-30 kPSI. […] Clarified lysates were applied to a 2 ml Ni-NTA (Thermo Scientific) column pre-equilibrated with Lysis Buffer. The beads were washed with 10 ml Lysis buffer and 2 × 30 ml of Wash Buffer (50 mM Tris–HCl pH 7.9, 500 mM NaCl, 30 mM Imidazole). His6-PHD2 was eluted by applying 10 ml Elution Buffer (50 mM Tris–HCl pH 7.9, 500 mM NaCl, 1 M Imidazole) to the column. Ni-NTA purified His6-PHD2 was dialyzed using a 10 kDa cut-off dialysis membrane against 2 L of Dialysis Buffer (50 mM Tris–HCl pH 7.5) for 4 h at 4 °C. […] Dialysis and thrombin cleavage were allowed to continue overnight at 4 °C. Thrombin-cleaved PHD2 was collected and applied to a 2 ml Ni-NTA column pre-equilibrated with Dialysis Buffer to remove uncleaved protein and cleaved His6 tags. The flow-through was collected and the beads were washed with 10 ml of Dialysis Buffer supplemented with 5 mM imidazole. The 5 mM imidazole eluate was pooled with the flow through and concentrated with an Amicon 10 kDa cut-off centrifugal concentrator (Millipore) to a volume of ~600 µl. The concentrated PHD2 was then applied to a Superdex 75 Increase 10/300 GL column (Cytiva) equilibrated with Dialysis Buffer or Labeling Buffer (50 mM HEPES pH 7.5, 150 mM NaCl) depending on the intended use of the sample. Eluted fractions containing PHD2 were collected and pooled. For the His6-PHD2 used in the indirect hydroxylation assay, no thrombin was added during dialysis steps therefore the His6-tag was not removed and the subsequent passage of the sample through Ni-NTA beads to remove His6-tags was not performed. Otherwise, the purification protocol for His6-PHD2 is the same as thrombin-cleaved PHD2. All purification steps were analyzed by SDS–PAGE and the Superdex 75 Increase chromatogram was used to assess size and aggregation, see Supplementary Fig. 5 for a representative purification assessment.
Labeling was conducted at room temperature for 1 h in the dark. Excess dye was then removed first by the passage of the sample through a PD-10 desalting column containing Sephadex G-25 resin (Cytiva) equilibrated with Dialysis Buffer and then any remaining excess dye was removed via repeated 10-fold dilution in Dialysis Buffer and subsequent concentration in an Amicon 10 kDa cut off centrifugal filter until the dye could no longer be detected in the concentrator flow through by Absorbance at 650 nm.
MST measurements were taken using a Monolith NT.115 (Nanotemper Technologies) at room temperature using standard MST capillaries (Nanotemper Technologies). […] For each HIFα-CODD peptide, ~1 mg dry weight of peptide was dissolved in 200 µl of 50 mM Tris–HCl pH 8.0 and concentrations were measured using UV absorbance at 280 nm for most peptides and BCA assay (Thermo Scientific) for Y532C and Y532H peptides using known concentrations of the WT HIF2α-CODD peptide to create a standard curve.

Data set [4] addresses T1, PHD2 (prolyl-hydroxylase domain, residues 181–426). Put plainly: Aggregation of PHD2 by HIF2α-CODD peptides in MST experiments (MST time traces). The format is physicochemical. The note with it: peptide dilution series with PHD2, room temperature. The procedure:
MST measurements were taken using a Monolith NT.115 (Nanotemper Technologies) at room temperature using standard MST capillaries (Nanotemper Technologies). A 2x stock of PHD2-647 was created by diluting PHD2-647 from a 10 µM stock to 50 nM with MST Buffer (50 mM Tris–HCl pH 7.5, 1 mM NOG, 10 µM FeSO4, 5 mg/ml BSA). For each HIFα-CODD peptide, ~1 mg dry weight of peptide was dissolved in 200 µl of 50 mM Tris–HCl pH 8.0 and concentrations were measured using UV absorbance at 280 nm for most peptides and BCA assay (Thermo Scientific) for Y532C and Y532H peptides using known concentrations of the WT HIF2α-CODD peptide to create a standard curve. The UV absorbance extinction coefficients for all HIF1α-CODD and HIF2α-CODD peptides used in this study is 1490 M^−1 cm^−1 except for HIF2α-CODD D539Y (2980 M^−1 cm^−1), HIF2α-CODD G537W (6990 M^−1 cm^−1) and HIF2α-CODD Y532C and Y532H which were not analyzed via absorbance at 280 nm due to the lack of any Tyrosine or Tryptophan residues in the peptides. For each experiment, 16 different concentrations of 15 µl peptide solution were created by 2-fold serial dilution of the peptide stock in 50 mM Tris–HCl pH 8.0. Each of the 16 peptide solutions was then mixed with an equal volume (15 µl) of 2× PHD2-647 solution resulting in a final 1× concentration of PHD2-647 at 25 nM. […] MST measurements were taken at 20% fluorescence excitation LED power and 40% (medium) infrared laser power. For each MST time trace initial fluorescence (pre-infrared laser activation) was recorded for 5 s, infrared laser on time was 20 s, and fluorescence post-infrared laser deactivation was recorded for 3 s. MST data was analyzed using the M.O. Affinity Analysis software (Nanotemper Technologies) and the 1:1 Kd binding model was fit to experimental data. […]
(also on this page, place not known: Relative Fluorescence Relative Fluorescence -10 30 Relative Fluorescence -10 30 Relative Fluorescence -10 30 Relative Fluorescence -10 30 Relative Fluorescence aggrega?on, (f) curves HIF2α-CODD)

Data set [5] addresses Alexa 647 labeled PHD2 (catalytic / prolyl-hydroxylase domain, residues 181-426) (human) (UniProt Q9GZT9). As to the kind of experiment: MST; 25 nM Alexa 647 labeled PHD2, unlabeled peptide in 16 two-fold dilutions; room temperature; MST Buffer 50 mM Tris-HCl pH 7.5, 1 mM NOG, 10 µM FeSO4, 5 mg/ml BSA mixed 1:1 with peptide in 50 mM Tris-HCl pH 8.0; 1:1 Kd model; triplicate.
Data set [6] addresses T2, Alexa 647 labeled PHD2 (catalytic / prolyl-hydroxylase domain, residues 181-426) (human, UniProt Q9GZT9 181-426, Alexa Fluor 647 N-hydroxysuccinimide ester dye, 1-2 dye molecules per protein molecule).
T2 construct: PHD2, prolyl-hydroxylase domain (catalytic domain), residues 181-426, from pET-46-HIS6-PHD2; Same construct as m2, dye-labeled for MST; also called PHD2-647; source: E. coli BL21(DE3), purified (Ni-NTA, thrombin cleavage, Superdex 75), labeled with Alexa Fluor 647 NHS ester
Described as above. The note with it: both partners purified.

“Also recorded” adds a separate entry of the source. Square brackets hold non-standard residues; d marks the D form. Hyp = O=C(O)[C@@H]1C[C@@H](O)CN1

T2 sequence (Q9GZT9 181-426): as above
Chain of Alexa 647 labeled PHD2 (catalytic / prolyl-hydroxylase domain, residues 181-426) (human) (Q9GZT9 181-426): as above

Take “HIF2α A530V: Class 1 mutant HIF2α-CODD peptide (Ac-ELDLETLVPYIPMDGEDFQL-NH2)”: in data set [1], the “PHD-mediated hydroxylation (in words)” value was “appeared to decrease PHD-mediated hydroxylation”. For the same molecule, the “Binding affinity for pVHL (in words)” value in data set [2] is recorded as “no effect on pVHL binding”. For the same molecule, in data set [3] (MST, with NOG), the “PHD2 affinity / Kd compared with another peptide (in words)” value is reported as “significant effect on PHD2 binding affinity; also recorded: more detrimental to the interaction than A530T”. Moreover, in data set [3] (MST), the “Kd (MST-determined PHD2/HIFα-CODD complex dissociation constant)” value is reported as “No binding”. In data set [3] (MST, target WT-PHD2(181-426), TargetConcentration 2.5e-8, ligand HIF2a-CODD peptide, MST-Power Medium, Excitation-Power 20 Nano - RED, hot region 19 to 20, unit of Kd not printed (doses of the same sheet are in M), Fig. 1c source data), the “Kd (Fit Results, Fit Model Kd)” value was 0.03648.
For “HIF2α P531A: Class 1 mutant HIF2α-CODD peptide (Ac-ELDLETLAAYIPMDGEDFQL-NH2)”, the “Aggregation of PHD2 in MST experiments” value in data set [4] is reported as “some evidence of aggrega?on at the highest concentra?on”. Also, the “Kd (MST-determined PHD2/HIFα-CODD complex dissociation constant)” value in data set [3] (MST) is reported as “No binding^a”.
On to “HIF2α WT-OH: synthetically hydroxylated WT HIF2α-CODD-OH peptide, negative control (Ac-ELDLETLA[Hyp]YIPMDGEDFQL-NH2; SMILES CC[C@H](C)[C@H](NC(=O)[C@H](Cc1ccc(O)cc1)NC(=O)[C@@H]1C[C@@H](O)CN1C(=O)[C@H](C)NC(=O)[C@H](CC(C)C)NC(=O)[C@@H](NC(=O)[C@H](CCC(=O)O)NC(=O)[C@H](CC(C)C)NC(=O)[C@H](CC(=O)O)NC(=O)[C@H](CC(C)C)NC(=O)[C@H](CCC(=O)O)NC(C)=O)[C@@H](C)O)C(=O)N1CCC[C@H]1C(=O)N[C@@H](CCSC)C(=O)N[C@@H](CC(=O)O)C(=O)NCC(=O)N[C@@H](CCC(=O)O)C(=O)N[C@@H](CC(=O)O)C(=O)N[C@@H](Cc1ccccc1)C(=O)N[C@@H](CCC(N)=O)C(=O)N[C@@H](CC(C)C)C(N)=O)”, for which, in data set [4], the “Aggregation of PHD2 in MST experiments” value is given as “no ag grega?on”. Besides, in data set [3] (MST), the “Binding to PHD2 (in words)” value is given as “did not bind to PHD2” and the “Kd (MST-determined PHD2/HIFα-CODD complex dissociation constant)” value is listed as “No Binding”. In addition, in data set [3] (MST, listed as WT-OH HIF2α-CODD), the “Binding to PHD2 (in words)” value is listed as “no”.
“HIF2α-CODD WT peptide (from UniProt Q99814 523-542)”: the Kd in data set [5] is 34 µM.
With `CC[C@H](C)[C@H](NC(=O)[C@H](Cc1ccc(O)cc1)NC(=O)[C@@H]1CCCN1C(=O)[C@H](C)NC(=O)[C@H](CC(C)C)NC(=O)[C@@H](NC(=O)[C@H](CCC(=O)O)NC(=O)[C@H](CC(C)C)NC(=O)[C@H](CC(=O)O)NC(=O)[C@H](CC(C)C)NC(=O)[C@H](CCC(=O)O)NC(C)=O)[C@@H](C)O)C(=O)N1CCC[C@H]1C(=O)N[C@@H](CCSC)C(=O)N[C@@H](CC(=O)O)C(=O)NCC(=O)N[C@@H](CCC(=O)O)C(=O)N[C@@H](CC(=O)O)C(=O)N[C@@H](Cc1ccccc1)C(=O)N[C@@H](CCC(N)=O)C(=O)N[C@@H](CC(C)C)C(N)=O` [HIF2α WT], in data set [4], the “Aggregation of PHD2 in MST experiments” value is “no aggrega?on”. Besides, in data set [3] (MST), the “Binding to PHD2 (in words)” value is listed as “showing binding”. The Kd in data set [3] (read-out: Kd (MST-determined PHD2/HIFα-CODD complex dissociation constant)) was 34 ± 2 µM.

B1: HIF2α-CODD ΔG537 peptide (peptide, UniProt Q99814 523-542, looked up)
peptide: Ac-ELDLETLAPYIPMDEDFQL-NH2
notes: HIF2α (EPAS1) CODD peptide, human, as m3 without G537; also called HIF2α ΔG537; source: synthetic peptide (Genscript, ≥95% purity)
B1 yielded a Kd in data set [6] of 13 ± 2 µM.
